The results in this text go back to paper doi:10.1101/2021.12.21.473719 (bioRxiv, 2021).

This assay concerns the target T1, POPDC1-Myc (Popeye domain-containing protein 1, Myc-tagged) (mouse, UniProt Q9ES83 1-358).
T1 sequence (looked up): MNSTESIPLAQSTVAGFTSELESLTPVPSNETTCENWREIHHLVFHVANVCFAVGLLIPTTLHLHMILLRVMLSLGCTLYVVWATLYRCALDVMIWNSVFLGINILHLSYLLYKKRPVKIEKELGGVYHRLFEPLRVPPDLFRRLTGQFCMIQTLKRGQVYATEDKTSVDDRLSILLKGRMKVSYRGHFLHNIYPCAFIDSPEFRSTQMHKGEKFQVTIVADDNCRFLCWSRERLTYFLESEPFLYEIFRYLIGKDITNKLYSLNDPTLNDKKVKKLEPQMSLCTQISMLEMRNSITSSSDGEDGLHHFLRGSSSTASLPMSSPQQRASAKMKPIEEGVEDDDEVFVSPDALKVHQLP
Description: co-IP.

B1: AC1 (adenylyl cyclase type 1), non-tagged (enzyme)
chain: not shown
As to B1, the “fold Ca2+/calmodulin-stimulated AC activity over IgG controls” value is 1.59 fold.
